Reference: patent US20210292396A1 (INTERNATIONAL AIDS VACCINE INITIATIVE, published 2021)
Where a chain is given by its changes, count along the chain named.

Legend:
Test in all cases: cell-based or functional assay
[1] = biological target: HIV Env of isolate TRJO4551.58 (HIV)
HIV Env of isolate CNE30 = HIV Env of isolate CNE30 (HIV)
[2] = biological target: HIV Env of isolate X2088_c9 (HIV)
[3] = biological target: HIV Env of isolate 0260.v5.c36 (HIV)
[4] = biological target: HIV Env of isolate Du422.1 (HIV)
[5] = biological target: HIV Env of isolate 0330.v4.c3 (HIV)
[6] = biological target: HIV Env of isolate P1981_C5_3 (HIV)
[7] = biological target: HIV Env of isolate QH0692.42 (HIV)
[8] = biological target: HIV Env of isolate ZM247v1(Rev-) (HIV)
[9] = biological target: HIV Env of isolate CAAN5342.A2 (HIV)
HIV Env of isolate CNE19 = HIV Env of isolate CNE19 (HIV)
[10] = biological target: HIV Env of isolate 3103.v3.c10 (HIV)
[11] = biological target: HIV Env of isolate T251-18 (HIV)
HIV Env of isolate CNE17 = HIV Env of isolate CNE17 (HIV)
[12] = biological target: HIV Env of isolate Ce1172_H1 (HIV)
[13] = biological target: HIV Env of isolate 0815.v3.c3 (HIV)
[14] = biological target: HIV Env of isolate 246F_C1G (HIV)
[15] = biological target: HIV Env of isolate REJO4541.67 (HIV)
[16] = biological target: HIV Env of isolate RHPA4259.7 (HIV)
[17] = biological target: HIV Env of isolate 6535.3 (HIV)
[18] = biological target: HIV Env of isolate Du172.17 (HIV)
[19] = biological target: HIV Env of isolate 928-28 (HIV)
[20] = biological target: HIV Env of isolate 191084_B7-19 (HIV)
[21] = biological target: HIV Env of isolate A07412M1.vrc12 (HIV)
[22] = biological target: HIV Env of isolate SC05_8C11_2344 (HIV)
[23] = biological target: HIV Env of isolate 235-47 (HIV)
[24] = biological target: HIV Env of isolate ZM53M.PB12 (HIV)
[25] = biological target: HIV Env of isolate BJOX009000.02.4 (HIV)
[26] = biological target: HIV Env of isolate 3301.v1.c24 (HIV)
[27] = biological target: HIV Env of isolate X1254_c3 (HIV)
[28] = biological target: HIV Env of isolate 7030102001E5(Rev-) (HIV)
HIV Env of isolate CNE58 = HIV Env of isolate CNE58 (HIV)
[29] = biological target: HIV Env of isolate 1394C9G1(Rev-) (HIV)
[30] = biological target: HIV Env of isolate 6811.v7.c18 (HIV)
[31] = biological target: HIV Env of isolate 62357_14_D3_4589 (HIV)
[32] = biological target: HIV Env of isolate Q23.17 (HIV)
[33] = biological target: HIV Env of isolate WEAU_d15_410_5017 (HIV)
[34] = biological target: HIV Env of isolate ZM135M.PL10a (HIV)
[35] = biological target: HIV Env of isolate 6240_08_TA5_4622 (HIV)
[36] = biological target: HIV Env of isolate 6952.v1.c20 (HIV)
[37] = biological target: HIV Env of isolate 6244_13_B5_4576 (HIV)
[38] = biological target: HIV Env of isolate Ce704809221_1B3 (HIV)
[39] = biological target: HIV Env of isolate ZM109F.PB4 (HIV)
HIV Env of isolate CNE21 = HIV Env of isolate CNE21 (HIV)
HIV Env of isolate CNE53 = HIV Env of isolate CNE53 (HIV)

B1: ePGT121.15.H1.L1 (antibody, V domains shown)
VH: QMQLQESGPGLVKPGETLSLTCSVSGASISSSYWSWLRETPGKGLEWIGYTHHSGDTNYAPSLKSRVHLGLHPSKNQVSLSLTSVTAADTAVYYCARTLHGRRIYGVVAFNEWFTYFYWEVWGNGTQVTVSS
VL: SDISVAPGETVRISCGGESIGSRAVQWYQHRAGQAPKLIIYNNQDRPPGIPERFSGSPDIDFGTTATLTITNVEAGDEATYYCHIWDSRRPTNWVFGGGTTLTVL
[1]
  neutralization (Table 6 value): 0.00359
HIV Env of isolate CNE30
  neutralization (Table 6 value): 0.00299
[2]
  neutralization (Table 6 value): 0.00147
[3]
  neutralization (Table 6 value): 0.00247
[4]
  neutralization (Table 6 value): 0.00243
[5]
  neutralization (Table 6 value): 0.00621
[6]
  neutralization (Table 6 value): 0.00069
[7]
  neutralization (Table 6 value): 0.0149
[8]
  neutralization (Table 6 value): 0.00158
[9]
  neutralization (Table 6 value): 0.00192
HIV Env of isolate CNE19
  neutralization (Table 6 value): 0.00103
[10]
  neutralization (Table 6 value): 0.00509
[11]
  neutralization (Table 6 value): 0.0274
HIV Env of isolate CNE17
  neutralization (Table 6 value): 0.0106
[12]
  neutralization (Table 6 value): 0.00075
[13]
  neutralization (Table 6 value): 0.00167
[14]
  neutralization (Table 6 value): 0.00428
[15]
  neutralization (Table 6 value): 0.311
[16]
  neutralization (Table 6 value): 0.00233
[17]
  neutralization (Table 6 value): 0.00121
[18]
  neutralization (Table 6 value): 0.0024
[19]
  neutralization (Table 6 value): 0.0868
[20]
  neutralization (Table 6 value): 0.00279
[21]
  neutralization (Table 6 value): 0.000964
[22]
  neutralization (Table 6 value): 0.00762
[23]
  neutralization (Table 6 value): 0.0061
[24]
  neutralization (Table 6 value): 0.00206
[25]
  neutralization (Table 6 value): 0.0255
[26]
  neutralization (Table 6 value): 0.00166
[27]
  neutralization (Table 6 value): 0.00299
[28]
  neutralization (Table 6 value): 0.00261
HIV Env of isolate CNE58
  neutralization (Table 6 value): 0.00795
[29]
  neutralization (Table 6 value): 0.00403
[30]
  neutralization (Table 6 value): 0.00109
[31]
  neutralization (Table 6 value): 0.00982
[32]
  neutralization (Table 6 value): 0.00126
[33]
  neutralization (Table 6 value): 0.00209
[34]
  neutralization (Table 6 value): 0.11
[35]
  neutralization (Table 6 value): 0.0052
[36]
  neutralization (Table 6 value): 0.00081
[37]
  neutralization (Table 6 value): 0.00697
[38]
  neutralization (Table 6 value): 0.00162
[39]
  neutralization (Table 6 value): 2.15
HIV Env of isolate CNE21
  neutralization (Table 6 value): 0.000929
HIV Env of isolate CNE53
  neutralization (Table 6 value): 0.00288

B2: ePGT121.15.H6.L1 (antibody, V domains shown)
VH: B1 VH with W113F, N124K
VL: B1 VL
[1]
  neutralization (Table 6 value): 0.00673
HIV Env of isolate CNE30
  neutralization (Table 6 value): 0.00289
[2]
  neutralization (Table 6 value): 0.00108
[3]
  neutralization (Table 6 value): 0.00217
[4]
  neutralization (Table 6 value): 0.00264
[5]
  neutralization (Table 6 value): 0.00764
[6]
  neutralization (Table 6 value): 0.000543
[7]
  neutralization (Table 6 value): 0.0126
[8]
  neutralization (Table 6 value): 0.00191
[9]
  neutralization (Table 6 value): 0.00221
HIV Env of isolate CNE19
  neutralization (Table 6 value): 0.000806
[10]
  neutralization (Table 6 value): 0.00513
[11]
  neutralization (Table 6 value): 0.0274
HIV Env of isolate CNE17
  neutralization (Table 6 value): 0.0101
[12]
  neutralization (Table 6 value): 0.000952
[13]
  neutralization (Table 6 value): 0.00022
[14]
  neutralization (Table 6 value): 0.00278
[15]
  neutralization (Table 6 value): 8e-06
[16]
  neutralization (Table 6 value): 0.00225
[17]
  neutralization (Table 6 value): 0.00121
[18]
  neutralization (Table 6 value): 0.00203
[19]
  neutralization (Table 6 value): 0.0852
[20]
  neutralization (Table 6 value): 0.00312
[21]
  neutralization (Table 6 value): 0.00204
[22]
  neutralization (Table 6 value): 0.00473
[23]
  neutralization (Table 6 value): 0.00363
[24]
  neutralization (Table 6 value): 0.00204
[25]
  neutralization (Table 6 value): 0.0166
[26]
  neutralization (Table 6 value): 0.00134
[27]
  neutralization (Table 6 value): 0.00272
[28]
  neutralization (Table 6 value): 0.00241
HIV Env of isolate CNE58
  neutralization (Table 6 value): 0.0145
[29]
  neutralization (Table 6 value): 0.00288
[30]
  neutralization (Table 6 value): 0.00114
[31]
  neutralization (Table 6 value): 0.0132
[32]
  neutralization (Table 6 value): 0.00146
[33]
  neutralization (Table 6 value): 0.00205
[34]
  neutralization (Table 6 value): 0.168
[35]
  neutralization (Table 6 value): 0.00465
[36]
  neutralization (Table 6 value): 0.000793
[37]
  neutralization (Table 6 value): 0.0055
[38]
  neutralization (Table 6 value): 0.00231
[39]
  neutralization (Table 6 value): 0.742
HIV Env of isolate CNE21
  neutralization (Table 6 value): 0.00124
HIV Env of isolate CNE53
  neutralization (Table 6 value): 0.00306
